This data set has as its target Spike RBD (SARS-CoV-2, UniProt P0DTC2 SEQ:1-223). Put plainly: filter.

B1: 26874-29_4 (SL1111) (ssDNA)
DNA: CCTTGGGATACTATGCGTCCGACCGCTCGGACGGAGAAGG
modifications: Y=Tyr-dU, p=Nap-dC; printed …pYAYGpGYppGAppGpYpGGApGGAGAAGG [Tyr-dU: 9,12,14,18,27; Nap-dC: 11,16,19,20,23,24,26,28,32]
As to B1, the dissociation constant (Kd) was 0.3 nM.

By Kd is commonly meant the free concentration of one partner at which half of the binding sites on the other are occupied at equilibrium, for simple one-to-one binding.

The values above are taken from patent US20240218374, “Nucleic Acid Compounds That Bind Coronavirus Proteins” (Somalogic Operating Co., Inc., published 2024).
